Reference: IntAct's records for PubMed 19858347

B1: Killer cell immunoglobulin-like receptor 2DL3 (Homo sapiens), P43628 (parent)
chain: MSLMVVSMVCVGFFLLQGAWPHEGVHRKPSLLAHPGPLVKSEETVILQCWSDVRFQHFLLHREGKFKDTLHLIGEHHDGVSKANFSIGPMMQDLAGTYRCYGSVTHSPYQLSAPSDPLDIVITGLYEKPSLSAQPGPTVLAGESVTLSCSSRSSYDMYHLSREGEAHERRFSAGPKVNGTFQADFPLGPATHGGTYRCFGSFRDSPYEWSNSSDPLLVSVTGNPSNSWPSPTEPSSETGNPRHLHVLIGTSVVIILFILLLFFLLHRWCCNKKNAVVMDQEPAGNRTVNREDSDEQDPQEVTYAQLNHCVFTQRKITRPSQRPKTPPTDIIVYTELPNAEP
B2: Killer cell immunoglobulin-like receptor 2DL1 (Homo sapiens), P43626 (parent)
chain: MSLLVVSMACVGFFLLQGAWPHEGVHRKPSLLAHPGRLVKSEETVILQCWSDVMFEHFLLHREGMFNDTLRLIGEHHDGVSKANFSISRMTQDLAGTYRCYGSVTHSPYQVSAPSDPLDIVIIGLYEKPSLSAQLGPTVLAGENVTLSCSSRSSYDMYHLSREGEAHERRLPAGPKVNGTFQADFPLGPATHGGTYRCFGSFHDSPYEWSKSSDPLLVSVTGNPSNSWPSPTEPSSKTGNPRHLHILIGTSVVIILFILLFFLLHRWCSNKKNAAVMDQESAGNRTANSEDSDEQDPQEVTYTQLNHCVFTQRKITRPSQRPKTPPTDIIVYTELPNAESRSKVVSCP
B3: Killer cell immunoglobulin-like receptor 2DS4 (Homo sapiens), P43632 (parent)
chain: MSLMVIIMACVGFFLLQGAWPQEGVHRKPSFLALPGHLVKSEETVILQCWSDVMFEHFLLHREGKFNNTLHLIGEHHDGVSKANFSIGPMMPVLAGTYRCYGSVPHSPYQLSAPSDPLDMVIIGLYEKPSLSAQPGPTVQAGENVTLSCSSRSSYDMYHLSREGEAHERRLPAVRSINGTFQADFPLGPATHGGTYRCFGSFRDAPYEWSNSSDPLLVSVTGNPSNSWPSPTEPSSKTGNPRHLHVLIGTSVVKIPFTILLFFLLHRWCSDKKNAAVMDQEPAGNRTVNSEDSDEQDHQEVSYA

Variants of: B1
Details: with hlac_human HLA-C
Target sequence in this assay (P10321 whole entry): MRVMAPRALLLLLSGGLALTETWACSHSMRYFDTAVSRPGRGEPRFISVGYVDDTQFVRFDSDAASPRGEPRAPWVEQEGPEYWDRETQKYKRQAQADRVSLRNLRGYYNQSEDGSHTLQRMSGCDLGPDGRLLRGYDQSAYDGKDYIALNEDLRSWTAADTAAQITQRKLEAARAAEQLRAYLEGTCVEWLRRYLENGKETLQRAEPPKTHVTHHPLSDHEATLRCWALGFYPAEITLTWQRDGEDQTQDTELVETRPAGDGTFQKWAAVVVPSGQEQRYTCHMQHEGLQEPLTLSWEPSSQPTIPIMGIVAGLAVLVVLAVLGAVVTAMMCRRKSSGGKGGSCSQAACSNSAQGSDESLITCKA

Variant	effect of a mutation on the interaction
T105P	decreasing interaction strength
Q92P;D93V;T105P	decreasing interaction strength
Q92P;D93V	decreasing interaction strength
Q92P	increasing interaction strength

Variants of: B1
Details: with hlac_human HLA-C
Remark: another data set of the same source
Target sequence in this assay (P10321 whole entry): as above

Variant	effect of a mutation on the interaction
T105P	disrupting interaction strength
Q92P;D93V;T105P	disrupting interaction strength
Q92P;D93V	disrupting interaction strength

Variants of: B1
Details: with hlab_human HLA-B
Target sequence in this assay (P01889 whole entry): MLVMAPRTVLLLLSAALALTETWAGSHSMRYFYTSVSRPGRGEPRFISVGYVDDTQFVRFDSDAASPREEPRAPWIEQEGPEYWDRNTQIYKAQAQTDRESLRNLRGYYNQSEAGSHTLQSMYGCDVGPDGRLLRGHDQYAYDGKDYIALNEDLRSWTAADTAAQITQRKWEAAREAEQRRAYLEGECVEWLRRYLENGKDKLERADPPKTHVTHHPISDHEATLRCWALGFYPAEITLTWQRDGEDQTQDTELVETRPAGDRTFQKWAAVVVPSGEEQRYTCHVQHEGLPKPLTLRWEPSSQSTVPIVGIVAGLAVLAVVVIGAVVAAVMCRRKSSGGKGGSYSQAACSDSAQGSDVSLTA

Variant	effect of a mutation on the interaction
Q92P	decreasing interaction strength

Variants of: B2
Details: with hlac_human HLA-C
Target sequence in this assay (P10321 whole entry): as the sequence (P10321 whole entry) above

Variant	effect of a mutation on the interaction
Q92P	increasing interaction strength
Q92P;D93V	decreasing interaction strength
T105P	decreasing interaction strength
Q92P;D93V;T105P	decreasing interaction strength

Variants of: B2
Details: with hlac_human HLA-C
Remark: another data set of the same source
Target sequence in this assay (P10321 whole entry): as above

Variant	effect of a mutation on the interaction
Q92P	decreasing interaction strength

Variants of: B3
Details: with hlac_human HLA-C
Target sequence in this assay (P10321 whole entry): as above

Variant	effect of a mutation on the interaction
K65M	disrupting interaction strength
P92Q;V93D	with no effect
A205S	with no effect

Variants of: B3
Details: with hlac_human HLA-C
Remark: another data set of the same source
Target sequence in this assay (P10321 whole entry): as above

Variant	effect of a mutation on the interaction
K65M	decreasing interaction strength
P92Q;V93D	decreasing interaction strength
I123T	decreasing interaction strength
A205S	decreasing interaction strength

Variants of: B3
Details: with hlac_human HLA-C
Remark: another data set of the same source

Variant	effect of a mutation on the interaction
K65M	with no effect

Variants of: B3
Details: with hlac_human HLA-C
Remark: another data set of the same source

Variant	effect of a mutation on the interaction
K65M	causing an interaction
P92Q;V93D	increasing interaction strength

Variants of: B3
Details: with hlab_human HLA-B
Target sequence in this assay (P01889 whole entry): as the sequence (P01889 whole entry) above

Variant	effect of a mutation on the interaction
P92Q;V93D	causing an interaction
A205S	causing an interaction

Variants of: B3
Details: with hlac_human HLA-C
Remark: another data set of the same source

Variant	effect of a mutation on the interaction
P92Q;V93D	causing an interaction
A205S	causing an interaction
